This note sets out measurements from patent publication US20260265800A1, “NEW FUCOSYLTRANSFERASES FOR IN VIVO SYNTHESIS OF LNFP-III” (DSM IP Assets B.V., priority 2022, published 2026).

“And” between values parts separate entries of the source, which are not always exact repeats. Identical values can stand only once.

The test system of the test is LNnT. Briefly: Deep well assay: HMO profile of LNnT-producing strains expressing α-1,3-fucosyltransferases (HPLC). It is filed as cell-based, Escherichia coli. The following applies: for LNFP-III, % of total HMO molar (mM) content produced by each strain: lactose as substrate, FT copy nr as in table 7 (enzyme names in text: single copy). Here is the method:
Deep Well Assays in the current examples were performed as originally described to Lv et al (Bioprocess Biosyst Eng 20 (2016) 39:1737-1747) and optimized for the purposes of the current invention. More specifically, the strains disclosed in the present example were screened in 96 deep well plates using a 4-day protocol. During the first 24 hours, precultures were grown to high densities (OD600 up to 5) and subsequently transferred to a medium that allowed induction of gene expression and product formation.
More specifically, during day 1, fresh precultures were prepared using a basal minimal medium (BMM) (pH 7.0) supplemented with magnesium sulphate (0.12 g/L), thiamine (0.004 g/L) and glucose (5.5 g/L). Basal Minimal medium had the following composition: NaOH (1 g/L), KOH (2.5 g/L), KHzPO4 (7 g/L), NH&HzPO4 (7 g/L), Citric acid (0.5 g/l), trace mineral solution (5 mL/L). The trace mineral stock solution contained; ZnSO~*7H~O 0.82 g/L, Citric acid 20 g/L, Mn$04*H&O 0.98 g/L, FeSO4*7H&O 3.925 g/L, CuSO4*5H~O 0.2 g/L. The pH of the Basal Minimal Medium was adjusted to 7.0 with 5 N NaOH and autoclaved. The precultures were incubated for 24 hours at 34° C. and 1000 rpm shaking and then further transferred to 0.75 ml of a new BMM (pH 7,5) to start the main culture. The new BMM was supplemented with magnesium sulphate (0.12 g/L), thiamine (0.02 g/L), a bolus of glucose solution (0.1-0.15 g/L) and a bolus of lactose solution (5-20 g/L) Moreover, a 20% stock solution of sucrose (40-45 g/L) or maltodextrin (19-20 g/L) was provided as carbon source, accompanied by the addition of a specific hydrolytic enzyme, sucrose hydrolase or glycoamylase, respectively, so that glucose was released at a rate suitable for carbon-limited growth and similar to that of a typical fed-batch fermentation process. The main cultures were incubated for 72 hours at 28° C. and 1000 rpm shaking. For the analysis of total broth, the 96 well plates were boiled at 100° C., subsequently centrifuged, and finally the supernatants were analysed by HPLC.
Genetically modified cells expressing individual α-1,3-fucosyltransferase enzymes were screened for their ability to produce the fucosylated HMO LNFP-III.
Genetically modified strains expressing the six individual α-1,3-fucosyltransferases (table 5) were generated as described in the “Method” section. The cells were screened in the deep well assay setup as described in the “Method” section.
The molar content of individual HMOs produced by the strains was measured by HPLC.
The results of the LNFP-III producing cells are shown in table 7 as the fraction of the total molar HMO content (in percentage, %) produced by each strain.

Setting [1] is: FT copy nr as in table 7, listed as FutT109.

B1: Hpull1: α-1,3-fucosyltransferase from Helicobacter pullorum, GenBank WP_065831246.1, SEQ ID NO: 3 (protein, listed as Helicobacter pullorum)
chain: MRKDLVIIRVDGGIASQISFVALGLEFESRGYKVKYDLSWFDEFGNGICNEQNGYDRSYNIVFDIPKAFPDIKCEIASRDEIEIYRKKYFVDNEEVIELKPPLYVGGYLGRHFNFKYRDFFAKHFNPKEIQESDSECKILLDNILSNHSCGVHIRRGDLSKEHVVYGKPLSVEYFLKNIQLVLQIEPKSKFYFFGDDLEWVKKKVIPSLNSIEYEICNVNSVEKGYLDLYLLSRCKIIIASQGSMGKFAKMLASDTETLLIAPNKNAPMENMIMVNWVDSYESSGEKQIQKPLSWRNKIRLKIYKKFRNKLLQKGIL
Turning to B1, the “LNDFH-III, % of total HMO molar (mM) content produced by each strain” value (“LNDFH-III, % of total HMO molar” for short) (FT copy nr as in table 7) is “do not produce any”.

B2: CafD: prior art α-1,3-fucosyltransferase from Helicobacter hepaticus ATCC 51449, GenBank AAP76669.1, SEQ ID NO: 41 (protein, listed as Helicobacter hepaticus)
chain: MKDDLVILHPDGGIASQIAFVALGLAFEQKGAKVKYDLSWFAEGAKGFWNPSNGYDKVYDITWDISKAFPALHIEIANEEEIERYKSKYLIDNDRVIDYAPPLYCYGYKGRIFHYLYAPFFAQSFAPKEAQDSHTPFAALLQEIESSPSPCGVHIRRGDLSQPHIVYGNPTSNEYFAKSIELMCLLHPQSSFYLFSDDLAFVKEQIVPLLKGKTYRICDVNNPSQGYLDLYLLSRCRNIIGSQGSMGEFAKVLSPHNPLLITPRYRNIFKEVENVMCVNWGESVQHPPLVCSAPPPLVSQLKRNAPLNSRLYKEKDNASA
As for B2, the “LNFP-III, % of total HMO molar (mM) content produced by each strain” value (“LNFP-III, % of total HMO molar” for short) was 0.0 ± 0.0%. Also, for the setting “FT copy nr as in table 7”, the “3-FL, % of total HMO molar (mM) content produced by each strain” value is 0.0 ± 0.0%; the “LNDFH-III, % of total HMO molar” value is 0.0 ± 0.0%; the “LNFP-VI, % of total HMO molar (mM) content produced by each strain” value (from here on “LNFP-VI, % of total HMO molar”) turned out to be 0.0 ± 0.0%; the “LNnT, % of total HMO molar (mM) content produced by each strain” value (“LNnT, % of total HMO molar” below) is 81.9 ± 1.3%. Also, the “pLNnH, % of total HMO molar (mM) content produced by each strain” value (“pLNnH, % of total HMO molar” below) (FT copy nr as in table 7) stood at 18.1 ± 1.3%. Moreover, under “single copy”, the “production of fucosylated HMOs (fucosylation of LNnT or lactose)” value is reported as “does not produce any fucosylated HMOs”.

B3: FutB: prior art α-1,3-fucosyltransferase from Helicobacter pylori, GenBank WP_000487430.1, SEQ ID NO: 6 (protein, listed as Helicobacter pylori)
chain: MFQPLLDAFIESASIEKMVSKSPPPPLKIAVANWWGDEEIKEFKKSVLYFILSQRYAITLHQNPNESSDLVFSNPLGAARKILSYQNTKRVFYTGENESPNFNLFDYAIGFDELDFNDRYLRMPLYYAHLHYEAELVNDTTAPYKLKDNSLYALKKPSHHFKENHPNLCAVVNDESDLLKRGFASFVASNANAPMRNAFYDALNSIEPVTGGGSVRNTLGYKVGNKSEFLSQYKFNLCFENSQGYGYVTEKILDAYFSHTIPIYWGSPSVAKDFNPKSFVNVHDFNNFDEAIDYIKYLHTHPNAYLDMLYENPLNTLDGKAYFYQDLSFKKILDFFKTILENDTIYHNNPFIFYRDLHEPLISIDDLRVNYDDLRVNYDDLRVNYDDLRVNYDDLRVNYDDLRVNYDDLRVNYDDLRVNYDDLRVNYDDLRVNYDRLLQNASPLLELSQNTTFKIYRKAYQKSLPLLRTIRRWVKK
For the molecule B3, the “LNFP-III, % of total HMO molar” value was 6% and 6.2 ± 0.5%. Besides, where the note is “FT copy nr as in table 7”, the “LNDFH-III, % of total HMO molar” value was 0.0 ± 0.0%; the “LNnT, % of total HMO molar” value is reported as 78.9 ± 0.4%; the “pLNnH, % of total HMO molar” value amounted to 13.2 ± 0.2%.

B4: FucT109: prior art α-1,3-fucosyltransferase from Bacteroides fragilis ATCC 25285, GenBank CAH09151.1, SEQ ID NO: 42 (protein, listed as Bacteroides fragilis)
chain: MCDCLSIILLVKMKKIYLKFVDFWDGFDTISNFIVDALSIQYEVVLSNEPDYLFYSCFGTSHLEYDCIKIMFIGENIVPDFNVCDYAIGFNYIDFGDRYLRLPLYAIYDGFSNLQNKKIDVNKALDRKFCSIVVSNNKWADPIRETFFKLLSSYKKVDSGGRAWNNIGGPVDNKLDFISQYKFNIAFENSRVLGYTTEKIMEPMQVNSIPVYWGNPLVGKDFNVDSFVNAHDFDSLERLVEYIIELDSSKDKYLEMLEKPWLLDKTYLDWKQLLLNFINNIMMKSYKDAKYLVNYGHAGKYRNEQRFWGRCERKFKLQRIIEYYSQLFDRK
As to B4, the “LNFP-III, % of total HMO molar” value was found to be 26%. For the setting “FT copy nr as in table 7”, the “3-FL, % of total HMO molar (mM) content produced by each strain” value was 2.0 ± 1.8%; the “LNFP-VI, % of total HMO molar” value worked out at 18%; the “LNnT, % of total HMO molar” value is 28.7 ± 1.6%; the “pLNnH, % of total HMO molar” value is 0.8 ± 0.7%. For the same molecule, under setting [1], the “LNDFH-III, % of total HMO molar” value was 24% and 23.9 ± 1.8%; the “LNFP-VI, % of total HMO molar” value is 18.0 ± 2.6%. Further, the “LNFP-III, % of total HMO molar” value (listed as FutT109) stood at 26.6 ± 3.5%.

B5: Med1: α-1,3-fucosyltransferase from Mediterranea sp. An20, GenBank WP_087337236.1, SEQ ID NO: 4 (protein, listed as Mediterranea sp.)
chain: MRKILILFYNKLWGVSWENEACASIPDGFELTDDRSRMAEADAVVFHLPDLARCMDGEEIEKRDGQLWVTWNLECDDNYPWVEAPEIRDLFDLRIGYRQQDDVWYPYFSFIRAEAFTRLPPRRPPLDKACLFVSSPFNRSHRFEFLRELMRHTEVDSFGRMLHNKDLPADEGRKTLMEKIADYKFVIGVENALARDYVTEKFFQPLLAGTVPVYRGAPNVEEFAPGRHCFVDARAFRSPADLAGFMNRCYEHPALYDELTAWRTQPLQPGFVQKLEQVKEHPFVRLCRVVEEKIRRIEYKIT
With B5, the “LNDFH-III, % of total HMO molar” value (FT copy nr as in table 7) is reported as “do not produce any”.

B6: Camp1: α-1,3-fucosyltransferase from Campylobacter sp., GenBank MBP3676691.1, SEQ ID NO: 1 (protein, listed as Campylobacter sp.)
chain: MRKDLVIIRVDGGIASQIAFVALGLEFESRGYKVKYDLSWFDEFGNGFYNEQNGYDRSYNITFDIPKAFPDIKCEIASRDEIEIYRKKYFVDNEEVIELKPPLYVGGYLGRHFDFKYRDFFAKHFNPKEIQESDSECKILLDNILSNHSCGVHIRMGDLSKEHVVYGKPLSVEYFLKNIQLVLQIEPKSKFYFFSDDLEWVKKKVIPSLHSIEYEICNVNSVEKGYLDLYLLSRCKIIIASQGSMGKYAKMLALDSKTLLITPNKNAPMENMMMVNWADSYESFEEKQIQKPLSWRNKIRLKIYKKLRNKLLQKGIL
As for B6, under “FT copy nr as in table 7”, the “LNDFH-III, % of total HMO molar” value is listed as “do not produce any”.

B7: Hacin2: α-1,3-fucosyltransferase from Helicobacter acinonychis, GenBank WP_104687422.1, SEQ ID NO: 5 (protein, listed as Helicobacter acinonychis)
chain: MFQPLLDAYTDSAYSDASDHKPPLNIAIANGWGGTKGFEASVLYFILSWRYKIALHENPNKPADLVFSNPLGQARKILSYQNTKRVFYTGENEVPNFNLFDYAIGFDGLDFKERYLRMPLYYASLHDKAQSVNDTTAPYTLKSDSLYALKKPAHCFKEDHPKLCSVVKGESDPFKRGFASFVAGNANAPMRNAFCEALNSVEPVTGGGAVKNTLGYNVTNKSEFLSQYKFNLCFENAQGYGYVTEKIIDAYFSHTIPIYWGSPSVAQDFNPKSFVNVHDFKDFDGAIDYIRYLHTHENAYLDMLYENPLNVIDGKACFYQDLSFKKILDFFKTILENDTIYHNNPFVFDRDLHEPLVSIDNLRADLLLLKDNYDGLKTDYDGLKTDYDGLKTDYDGLKTDYDGLKTDYDGLKTDYDGLKTDYDHLFKSALPLLELSQTTSFKIYHKIYQKTLPLLRMARKLVKK
Turning to B7, the “LNDFH-III, % of total HMO molar” value (FT copy nr as in table 7) is recorded as “do not produce any”.
